Stoichiometry N data for 1 substance are collected here from article PMC12872393, “NCOA4 initiates ferritinophagy by avidly binding GATE16 using two short linear interaction motifs” (Life Science Alliance, 2026).

In this experiment the target is (GST-GATE16)2 (UniProt P60520). Put plainly: SEC-MALS; 100 μl of 1 mg/ml protein on a WTC-030 column; 20 mM Tris, 150 mM NaCl, pH 7.5; 0.5 ml/min.

A word on the stoichiometry N: it is a count of units in the complex or per binding partner. In the case of “(GST-GATE16)2 (from UniProt P60520 1-117) (natural protein)”, the stoichiometry N turned out to be 2.
